From patent CN114478784A (SHAANXI PULSE ELEMENT BIOTECHNOLOGY LTD COMPANY, dated 2022)
Values belong to the binder of their own block, whether it stands above or below them.

Key:
[1] = target: T1, ENO2 with C-terminal flag tag (ENO2flag-pcDNA3.1, expressed in transfected cells, lysate) (UniProt P09104 2-434); experiment: Western blot, lysate of cells transfected with ENO2flag-pcDNA3.1, hybridoma supernatant as primary antibody
T1 construct: Denatured cell lysate on SDS-PAGE / PVDF membrane (Western blot); also called ENO2抗原; not shown: C-terminal flag tag
T1 sequence (P09104 2-434 limits assumed): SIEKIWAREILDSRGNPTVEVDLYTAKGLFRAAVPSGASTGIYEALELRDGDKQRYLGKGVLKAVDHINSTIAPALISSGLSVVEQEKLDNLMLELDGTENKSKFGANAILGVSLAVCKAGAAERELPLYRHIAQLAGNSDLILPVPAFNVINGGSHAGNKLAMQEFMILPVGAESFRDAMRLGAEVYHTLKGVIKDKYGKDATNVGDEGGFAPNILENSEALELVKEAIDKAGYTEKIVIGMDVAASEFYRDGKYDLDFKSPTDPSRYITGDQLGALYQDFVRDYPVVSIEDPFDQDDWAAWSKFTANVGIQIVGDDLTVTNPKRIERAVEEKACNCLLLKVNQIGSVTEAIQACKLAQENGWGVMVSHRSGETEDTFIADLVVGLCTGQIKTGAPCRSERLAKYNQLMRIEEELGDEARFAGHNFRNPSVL

[2] = target: T2, ENO2-GST (human ENO2 expressed from pGEX 4t-1, GST-purified) (human, UniProt P09104 1-434); experiment: ELISA screening of hybridoma supernatants on coated ENO2-GST (100 ng/well), three rounds of subcloning
T2 construct: Expressed in E. coli BL21(DE3) and used to coat the ELISA plates; also called pGEX 4t-1载体表达的ENO2; ENO2抗原; not shown: GST tag of vector pGEX 4t-1
T2 sequence (P09104 whole entry): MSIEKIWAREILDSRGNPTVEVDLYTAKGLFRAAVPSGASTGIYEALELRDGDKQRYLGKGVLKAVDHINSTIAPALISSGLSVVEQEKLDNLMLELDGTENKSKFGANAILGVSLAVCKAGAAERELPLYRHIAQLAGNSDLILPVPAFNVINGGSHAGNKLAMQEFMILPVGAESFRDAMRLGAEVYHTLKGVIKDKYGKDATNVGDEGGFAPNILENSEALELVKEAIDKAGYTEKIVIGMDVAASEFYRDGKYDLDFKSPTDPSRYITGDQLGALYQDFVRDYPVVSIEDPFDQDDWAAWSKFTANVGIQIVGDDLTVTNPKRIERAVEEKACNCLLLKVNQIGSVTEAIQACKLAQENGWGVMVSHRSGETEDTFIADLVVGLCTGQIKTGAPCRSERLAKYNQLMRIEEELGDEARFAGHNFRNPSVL

[3] = target: 纯化的ENO2蛋白 (purified ENO2 protein coated in Example 7) (UniProt P09104 1-434, limits assumed); experiment: ELISA, ENO2 coated at 100 ng/well, 293T supernatant, HRP anti-heavy-chain IgG / anti-kappa secondary, OD450
Sequence of 纯化的ENO2蛋白 (purified ENO2 protein coated in Example 7) (P09104 whole entry): as above

binding result [1]: binds | binding result [2]: binds
B1: ENO2单克隆抗体1C5 (from hybridoma) (antibody, V domains shown)
VH: EVKLVESGGDLVQPGGSLRLSCATSGFTFTDYYMIWVRQPPGKALEWLGFIRNKANGYTTQYNASVKGRFTISRDNSQSILYLQMNTLRPEDSATYYCVRDRRGTTFAYWGQGTLVTVSA
VL: QAVVTQESALTTSPGETVTLTCRSNTGAVTTSNYANWVQEKPDHLFTGLIGGTYNRAPGVPARFSGSLIGDKAALTITGAQTEDEAIYFCSLWYSNHWVFGGGTKLTVL
notes: It was used as hybridoma culture supernatant in the assays; also called 1C5单克隆抗体; 杂交瘤细胞上清

binding result [3]: no binding
B2: 1C5mk alone (recombinant 1C5 light chain, transfected without the heavy chain) (other)
light: QAVVTQESALTTSPGETVTLTCRSNTGAVTTSNYANWVQEKPDHLFTGLIGGTYNRAPGVPARFSGSLIGDKAALTITGAQTEDEAIYFCSLWYSNHWVFGGGTKLTVLRADAAPTVSIFPPSSEQLTSGGASVVCFLNNFYPKDINVKWKIDGSERQNGVLNSWTDQDSKDSTYSMSSTLTLTKDEYERHNSYTCEATHKTSTSPIVKSFNRNEC
notes: Tested as supernatant of 293T cells transfected with the light chain plasmid only; also called 轻链1C5mk
